Source: article PMC6247239 (Protein Science : A Publication of the Protein Society, 2018)
Each block holds one molecule with its values, some of them ahead of it.

T1: FtsA (Escherichia coli, UniProt P0ABH0 1-420)
T1 sequence: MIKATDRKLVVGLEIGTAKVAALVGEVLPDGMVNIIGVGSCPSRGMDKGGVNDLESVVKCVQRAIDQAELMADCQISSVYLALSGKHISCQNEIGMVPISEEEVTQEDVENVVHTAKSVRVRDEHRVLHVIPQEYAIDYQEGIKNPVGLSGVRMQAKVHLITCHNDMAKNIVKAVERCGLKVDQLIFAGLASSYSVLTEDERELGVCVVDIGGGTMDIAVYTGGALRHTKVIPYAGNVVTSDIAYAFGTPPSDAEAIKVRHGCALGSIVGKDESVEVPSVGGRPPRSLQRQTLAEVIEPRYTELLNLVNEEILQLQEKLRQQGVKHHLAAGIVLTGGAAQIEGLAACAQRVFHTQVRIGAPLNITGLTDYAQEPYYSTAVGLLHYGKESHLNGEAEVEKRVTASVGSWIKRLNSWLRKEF

B1: SNX16 PX-CC unit (domain or fragment)
chain: DRPSTPTILGYEVMEERAKFTVYKILVKKTPEESWVVFRRYTDFSRLNDKLKEMFPGFRLALPPKRWFKDNYNADFLEDRQLGLQAFLQNLVAHKDIANCLAVREFLCLDDPPGPFDSLEESRAFCETLEETNYRLQKELLEKQKEMESLKKLLSEKQLHIDTLENRIRTLSLEPEESLDVSETEGEQILKVESSALEVDQDVLDEESRADNKPCLSFSEPENAVSEIEVAEVAYDAEED
B2: MinC (natural protein)
chain: MSNTPIELKGSSFTLSVVHLHEAEPKVIHQALEDKIAQAPAFLKHAPVVLNVSALEDPVNWSAMHKAVSATGLRVIGVSGCKDAQLKAEIEKMGLPILTEGKEKAPRPAPTPQAPAQNTTPVTKTRLIDTPVRSGQRIYAPQCDLIVTSHVSAGAELIADGNIHVYGMMRGRALAGASGDRETQIFCTNLMAELVSIAGEYWLSDQIPAEFYGKAARLQLVENALTVQPLN
B3: human glutathione transferase M1a-1a (enzyme)
chain: MPMILGYWDIRGLAHAIRLLLEYTDSSYEEKKYTMGDAPDYDRSQWLNEKFKLGLDFPNLPYLIDGAHKITQSNAILCYIARKHNLCGETEEEKIRVDILENQTMDNHMQLGMICYNPEFEKLKPKYLEELPEKLKLYSEFLGKRPWFAGNKITFVDFLVYDVLDLHRIFEPKCLDAFPNLKDFISRFEGLEKISAYMKSSRFLPRPVFSKMAVWGNK
B4: FtsZ (natural protein)
chain: MFEPMELTNDAVIKVIGVGGGGGNAVEHMVRERIEGVEFFAVNTDAQALRKTAVGQTIQIGSGITKGLGAGANPEVGRNAADEDRDALRAALEGADMVFIAAGMGGGTGTGAAPVVAEVAKDLGILTVAVVTKPFNFEGKKRMAFAEQGITELSKHVDSLITIPNDKLLKVLGRGISLLDAFGAANDVLKGAVQGIAELITRPGLMNVDFADVRTVMSEMGYAMMGSGVASGEDRAEEAAEMAISSPLLEDIDLSGARGVLVNITAGFDLRLDEFETVGNTIRAFASDNATVVIGTSLDPDMNDELRVTVVATGIGMDKRPEITLVTNKQVQQPVMDRYQQHGMAPLTQEQKPVAKVVNDNAPQTAKEPDYLDIPAFLRKQAD

Experiments:
[1] = target: PBP2a (Staphylococcus aureus (MRSA))
[2] = target: Beclin-1 lacking the BARA domain (human)
[3] = target: radical-generating subunit of the class I ribonucleotide reductase of Leeuwenhoekiella blandensis (Leeuwenhoekiella blandensis); assay: multi-detection SEC, GEMMA, DLS
[4] = target: procaspase-2 phosphorylated at S139 and S164 (human) (UniProt P42575); assay: fluorescence polarisation + native gel or EMSA + SEC + AUC
[5] = target: BECN1 coiled-coil domain (Homo sapiens) (UniProt Q14457); conditions: cited from earlier work
Ras = Ras (UniProt P01112)
crystal structure = target: the molecule itself; assay: crystal structure
FtsZ = target: B4; assay: co-sedimentation
[6] = target: the molecule itself; assay: SEC + other: dynamic light scattering, HDX-MS, spectroscopy
FtsA = target: T1, FtsA; assay: co-sedimentation

Chain of procaspase-2 phosphorylated at S139 and S164 (human) (P42575 whole entry, the tested form may be a part): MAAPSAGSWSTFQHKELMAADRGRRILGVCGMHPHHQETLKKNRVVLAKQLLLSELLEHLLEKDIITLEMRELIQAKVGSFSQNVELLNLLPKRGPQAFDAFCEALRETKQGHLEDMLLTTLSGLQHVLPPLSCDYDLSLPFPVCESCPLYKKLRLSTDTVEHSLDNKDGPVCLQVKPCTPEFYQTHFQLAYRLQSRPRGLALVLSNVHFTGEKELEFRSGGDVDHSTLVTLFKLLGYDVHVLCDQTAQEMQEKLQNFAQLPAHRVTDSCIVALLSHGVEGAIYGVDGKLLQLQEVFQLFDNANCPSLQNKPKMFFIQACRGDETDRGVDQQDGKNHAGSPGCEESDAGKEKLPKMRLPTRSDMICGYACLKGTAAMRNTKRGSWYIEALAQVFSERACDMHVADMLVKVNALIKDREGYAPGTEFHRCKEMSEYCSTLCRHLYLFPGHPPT

Molecule: BLIP-II N50A:Y113H (natural protein)
Kd [1]: 0.05 µM

fold weaker homodimer KD than the full-length protein [2]: 3.5 fold
Molecule: Beclin-1 lacking the BARA domain (domain or fragment)

stoichiometry N [3]: 4
Molecule: radical-generating subunit of the class I ribonucleotide reductase of Leeuwenhoekiella blandensis (enzyme)

stoichiometry N [4]: 1
Molecule: 14-3-3 protein (from UniProt P63104 1-245) (natural protein)

Molecule: BECN1 coiled-coil domain (from UniProt Q14457)
Kd [5]: 48 µM

percent of the Ras population forming dimers (Ras): < 10%
Molecule: Ras (from UniProt P01112 1-189) (natural protein)

Molecule: B1
stoichiometry N (crystal structure): 2

Molecule: B2
binding result (FtsZ): binds

Molecule: B3
stoichiometry N [6]: 2

Molecule: B4
binding result (FtsA): binds
